Test system: Escherichia coli TOP10
Assay: shrunken log2 fold change of peptide-encoding DNA abundance (4.5 h post-induction vs induction); higher = less antimicrobial activity (less host growth inhibition)
Conditions: time post-induction: 4.5 h; library: site-saturation at positions 5, 18, 19, 20
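Further: peptides expressed intracellularly from a pBAD plasmid library in pooled LB shake-flask culture, induced with 0.3% L-arabinose, DNA abundance read by NGS, three biological replicates, DESeq2 with apeglm shrinkage.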

Sequence	shrunken log2 fold change
RRIRKRPPRLPRPRPRPNWPPRP	0.19
RRIRGRPPRLPRPRPRPDRKPRP	0.051
RRIRSRPPRLPRPRPRPFYEPRP	-0.165
RRIRRRPPRLPRPRPRPKQEPRP	0.0674
RRIRPRPPRLPRPRPRPHPPPRP	0.397
RRIRTRPPRLPRPRPRPICQPRP	-0.0148
RRIRGRPPRLPRPRPRPPYRPRP	0.388
RRIRPRPPRLPRPRPRPSVYPRP	-0.361
RRIRERPPRLPRPRPRPIVDPRP	-0.204
RRIRARPPRLPRPRPRPVRFPRP	0.828
RRIRTRPPRLPRPRPRPKSQPRP	-0.285
RRIRVRPPRLPRPRPRPTAKPRP	0.0848
RRIRPRPPRLPRPRPRPFGMPRP	-0.749
RRIRSRPPRLPRPRPRPLPKPRP	0.493
RRIRCRPPRLPRPRPRPQRIPRP	0.0509
RRIRERPPRLPRPRPRPRDEPRP	0.307
RRIRQRPPRLPRPRPRPARHPRP	0.0911
RRIRIRPPRLPRPRPRPWFPPRP	-0.349
RRIRYRPPRLPRPRPRPPALPRP	-0.1
RRIRQRPPRLPRPRPRPPGPPRP	0.255
RRIRERPPRLPRPRPRPDMQPRP	-0.184
RRIRGRPPRLPRPRPRPDPMPRP	0.743
RRIRQRPPRLPRPRPRPGKDPRP	-0.115
RRIRGRPPRLPRPRPRPEWMPRP	0.933
RRIRGRPPRLPRPRPRPTYVPRP	-0.144

Sequence	shrunken log2 fold change
RRIRPRPPRLPRPRPRPSYTPRP	-0.868
RRIRCRPPRLPRPRPRPTYNPRP	-0.722
RRIRPRPPRLPRPRPRPEVFPRP	0.0976
RRIRCRPPRLPRPRPRPINGPRP	-0.282
RRIRIRPPRLPRPRPRPLDQPRP	-0.127
RRIRFRPPRLPRPRPRPNCDPRP	-0.144
RRIRHRPPRLPRPRPRPSATPRP	-0.00655
RRIRFRPPRLPRPRPRPQGRPRP	0.19
RRIRPRPPRLPRPRPRPPTFPRP	-0.142
RRIRHRPPRLPRPRPRPPGDPRP	0.477
RRIRDRPPRLPRPRPRPDIYPRP	0.0286
RRIRKRPPRLPRPRPRPASTPRP	0.53
RRIRGRPPRLPRPRPRPMICPRP	0.166
RRIRARPPRLPRPRPRPCFIPRP	-0.333
RRIRERPPRLPRPRPRPWCDPRP	-0.508
RRIRPRPPRLPRPRPRPPQHPRP	0.485
RRIRTRPPRLPRPRPRPEQMPRP	0.233
RRIRKRPPRLPRPRPRPWYRPRP	0.0232
RRIRPRPPRLPRPRPRPAFFPRP	0.186
RRIRSRPPRLPRPRPRPMNCPRP	-0.0191
RRIRVRPPRLPRPRPRPDKHPRP	-0.108
RRIRWRPPRLPRPRPRPCHAPRP	-0.253
RRIRMRPPRLPRPRPRPNLPPRP	-0.0556
RRIRLRPPRLPRPRPRPHVAPRP	0.0259
RRIRTRPPRLPRPRPRPCPPPRP	-0.143

Sequence	shrunken log2 fold change
RRIRRRPPRLPRPRPRPKCCPRP	0.00261
RRIRNRPPRLPRPRPRPLHTPRP	0.0669
RRIRTRPPRLPRPRPRPACWPRP	0.281
RRIRLRPPRLPRPRPRPSRWPRP	-0.279
RRIRIRPPRLPRPRPRPAYEPRP	-0.277
RRIRVRPPRLPRPRPRPPWQPRP	0.44
RRIRTRPPRLPRPRPRPMRYPRP	-0.0953
RRIRIRPPRLPRPRPRPWGPPRP	0.102
RRIRCRPPRLPRPRPRPLRIPRP	-0.0238
RRIRLRPPRLPRPRPRPGGNPRP	-0.0421
RRIRRRPPRLPRPRPRPPCDPRP	1.03
RRIRVRPPRLPRPRPRPLHTPRP	-0.0261
RRIRMRPPRLPRPRPRPEAAPRP	3.45
RRIRMRPPRLPRPRPRPQGGPRP	0.631
RRIRQRPPRLPRPRPRPREEPRP	-0.00407
RRIRQRPPRLPRPRPRPVGQPRP	0.0327
RRIRARPPRLPRPRPRPTECPRP	0.0171
RRIRQRPPRLPRPRPRPQKDPRP	-0.29
RRIRARPPRLPRPRPRPEFFPRP	0.33
RRIRWRPPRLPRPRPRPEASPRP	0.551
RRIRIRPPRLPRPRPRPGVHPRP	0.241
RRIRERPPRLPRPRPRPEWSPRP	0.0433
RRIRDRPPRLPRPRPRPRHLPRP	-0.199
RRIRCRPPRLPRPRPRPFLLPRP	-0.569
RRIRHRPPRLPRPRPRPASSPRP	0.0164

— the supplement of paper PMC9112550, “Optimization of the antimicrobial peptide Bac7 by deep mutational scanning” (BMC Biology, 2022)
